Test results from patent publication US20090047282.

How the values were obtained:
[1] = test system: human Shh-N (cysteine residue at the 24th position up to the glycine residue at the 197th position of human Shh), E. coli recombinant, histidine tag excised with enterokinase
[2] = test system: Shh-(24-45), 22-mer peptide of amino acids 24 to 45 of human Shh, biotin at the C-terminal lysine
Shh-(24-45), 22-mer peptide of amino acids 24 to 45 of human Shh, biotin at the C-terminal lysine, sequence (chain, as listed by the source): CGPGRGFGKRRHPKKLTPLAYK

Substance	radioactivity of [14C] palmitic acid in the band of Shh-N after SDS-PAGE (HHAT activity) [1]	radioactivity of [3H] palmitic acid added to the substrate peptide against the peptide's concentration (reaction time 1 hour) [2]	radioactivity of [3H] palmitic acid added to the substrate peptide against the reaction time (10 uM peptide) [2]
human HHAT (human hedgehog acyltransferase) with a C-terminal FLAG-Tag, crude enzyme solution from transfected HEK293 cells	Only when the human HHAT crude enzyme solution and the Shh-N were reacted, a band having a radioactivity was recognized in the vicinity of the molecular weight of 21 kDa corresponding to the Shh-N		
human HHAT expressed with the Bac-to-Bac baculovirus system (HHAT enzyme solution of Example 5)		the activity was increased depending on the concentration (FIG. 3)	the activity was increased for 2 hours (FIG. 4)
